In the DeepSol protein solubility set:

Test: soluble on expression in E. coli; label from the status in PepcDB or PDB records

| Sequence | soluble on expression in E. coli |
| --- | --- |
| GMPTRVIEDKGDMTPSFGIDDRIFLGEGLFETIRVNSSKPSFAYMHWERLGNSARQLGIPFEISFDDWFEHLIQKIQKDNLYHGGIKAILSGGPASRGLAERGQVSQLIFQTFNYSIQKHPVRLISINWLRDKANPLYQLKSVNYLEAIIAQRQAIAVGADDALFFNTENHVTETTCANLFLIENNILYTPRVEDGILPGITRARLISHCQQHKMSVQEISLTKKRIEDADAVFLTNSLQGIRRVLSLDNIIFEVNHPIIDKLIFLLNQDES | soluble |
| AMDSIAKRPRTRLSPLKRKQQLMEIALEVFARRGIGRGGHADIAEIAQVSVATVFNYFPTREDLVDEVLNHVVRQFSNFLSDNIDLDLHAKENIANITNAMIELVVQDNHWLKVWFEWSASTRDEVWPLFVTTNRTNQLLVQNMFIKAIERGEVCDQHNPEDLANLFHGICYSLFVQANRTNNTAELSKLVSSYLDMLCIYKREHE | soluble |
| MLYKGCLMKSDVQLNLRAKESQRALIDAAAEILHKSRTDFILETACQAAEKVILDRRVFNFNDEQYEEFINLLDAPVADDPVIEKLLARKPQWDV | not soluble |
| SAPFDVIGPQEPILAVVGEDAELPCRLSPNVSAKGMELRWFREKVSPAVFVSREGQEQEGEEMAEYRGRVSLVEDHIAEGSVAVRIQEVKASDDGEYRCFFRQDENYEEAIVHLKVAALGSDPHISMKVQESGEIQLECTSVGWYPEPQVQWRTHRGEEFPSMSESRNPDEEGLFTVRASVIIRDSSMKNVSCCIRNLLLGQEKEVEVSIPASFFPRLT | not soluble |
| MSSLHLDALHWSPDASTELLRGVHLEVPAGSFVGLIGPNGSGKTSLLRCAFRYARPQRGRVVLDGDDLWRQPPRWAARRIAVVLQEFPEDFGLAVEDVVAMGRTPHKGLFDGHGADDRQRVRQALLQVGLEGRAASPFASLSGGEKQRALLARALVQEPRLLILDEPTNHLDPRYQLELLRLLRSLGLSTLASFHDLNLAAAFCDRLYVLDGGRIVAQGTPTEVLDADLLWRVFGVRALVDRHPLADHPR | not soluble |
| MKKIKTISTLVAGLGIAFLGHTTHADAAENNNQQQSTHNYSTTEVSFSNSGNLYTSGQCTWYVYDKTGGKIGSTWGNANSWATAAQAAGFTVNNTPEEGAIMQSSEGAFGHVAFVESVNNDGSITVSEMNYDGGPFAISTRTISASEASSYNYIHLNLEHHHHHH | not soluble |
| MESEGEAQMFADCDQKTVKQTAAKPMSSKKKQDFQALASDRQLAIVFSSMIQVSEAFDYGIGNPEYFVRISMTEEEADIAKENLESIKLENKSLKKQNSEAVALLQKTRNQDMSRIEIQQLTENRAGFFETADSMIKLINQVTPKNAKKTRQQLDQLKKQYTQYSAESIKIMNSIVKKQKADKASFERHLEALLQKQPGQQVRSELYLEHHHHHH | soluble |
| MSKVMNALKQSQQKYLQAQPVSRRTYTEQEPTAMNPSRWLHLALWLVPGLVTAGVMTYQRYELVQQEVANRQTEPTTVQVDAPLERLAYPEFQDLQPTFVESGLDEPYPEEDVTALADNIVAPPATIQASGQQSASNKALGDLDLTQLSPELALRVQAIMRDQSSEPATPSTPTSAAVSLTQHSDRYQGQLPALNFQMHAFSSNEQKRWIKVNGVEYREGDMLTPEVKLESIKPQSSVIIFGGEEIEIPALYDWKG | not soluble |
| GPGSMTTSASLFKKFTLENVAQIASSSHKEQKEVREELAEQYPALEAYWEEILPKKSDIFIIRCQGQVHCITLVSSQPEVLFFNHHGGPYLPHLKLLHKYPFMLTRHQVDIGGCRYVISGANVMCQGLTSAGGIVADGTEEGEVVAVYVEGKEHAVAVGTMLMSSDEIKEKNKGPCIENIHHLGDGLWMNPVLSASHISV | soluble |
| MSLDNQLRPTLHYQAQNPHRRVLVTGATGYIGGRLITELLAAGFQVRATSRKKTSLQRFDWYEDVEAVEADLTDATELDTLFKDVDVVYYLVHSMGGKNVDFEEQEQRTAENVIQAADQAGIKQIVYLSGLHPRNRKIEELSKHMRSREKVAQILLAGQTPALILRAATIIGSGSASFEIIRHLTERLPRMIAPQWITNQIEPLAIRDVLHYLISAADLKDPVNRSCDIGCGKSYEFADLLRIYADVRGLKRHVNSVPLNLPMDKLSGLWISLVTPVPFQLSFPLAQSMAEDAVTEEHSIKDIISDPPDGFIEYREAVELALAAEFDRGVPTSWDRSWTVQQPWAGQPTDPEWAGKAVYEDVRTEDTDLRAAQVWPIIEGLGGVNGWYSAPLLWRLRGIADRLIGGPGLGGRRDPRHLKLGDRIDWWRVTEIDPPHRLVLTAEMKVDGGAWLILEVADKENGGCTYTQRAIFEPKGEGHHHHHH | soluble |
| MGSDKIHHHHHHMRNASIEQYDATPRAVVAMGTDYPDGYLLPRHRHRRAQLLYGASGVMQVRTGDAGWVVPPQRAVWIPPGVEHEVRMLGVSTRSLYIEPGSAMAMPAHCQVLAVSPLLRQLLLAAVDMPLEYDTEGRDGALATLLLHELAAAETLPLHVPLPPEPRWLALCEAFLVEPDIRASAERWAGLLHTSLRSFNRTFRRYTGLSFGAWKQRACVVQALARLAGGETVTAIALDCGYQSPAAFSTMFRRVLGQPPSAFQAGALRSPGGP | not soluble |
| MGSDKIHHHHHHMNTRLKDTSGHSPIDPRILDEAAAWLMQLHASTVTDMERNAWEQWRLRSPQHRQAWERAEQLMNKMGGLPPALSMAALTHPGGNNRRAAIKKLALLMTALPASWAAWRVTPWEAWMAEYRTMVSEQREIELADGSQVRLNTATSIDVRFNAVQRLIVLHTGEILIQTAADNAVTPRPFQVLTAEGRLYALGTRFTVRQGEERSHVAVFDGAVAIHPKSGDSGVAQVLHAGNKTVFTAEAIEVSRPADDTDIAWTQGMLLADKMHLTDFTDELSRYRQGIVRCDPVLADLRISGAFPIRDTDRTLAMLQATYPVRIVYRTPYWVTLVPR | not soluble |
| AMAISITCPPPMSVEHADIWVKSYSLYSRERYICNSGFKRKAGTSSLTECVLNKATNVAHWTTPSLKCIRDPALVHQRPAPPSTVTTAGVTPQPESLSPSGKEPAAS | soluble |
| SASERIIEKTPENSKFHKHQQKNYPLMSILKFHCRLLRCVSRCFTGITISYPATKHGYTKFEKLEDPLTGYTNMKRTIILDLDETLVHATTHLPGVKHDFMVMVKMEREIMPIFVVKRPGVTEFLERLGENYKVVVFTAGLEEYASQVLDKLDKNGVISQRLYRDSCTEVNGKYVKDLSLVVGKDLRSALIVDDNPSSYSLQPENGVPIKAFVDDLKDQELLNLVEFLESCYAYEDMRDAVTDLLAN | soluble |
| MSALKWTNIGATSGAKSCQRWLFYAYDRIRRTVVPHVFGERTLATLERLLSLLSAFEVVVWMTDGWPLYESRLKGKLHVISKRYTQRIERHNLNLRQHLARLGRKLLSFSKSVELHDKVIGHYLNIKHYQLEHHHHHH | not soluble |
| MSNPQDDKPIDQEQEAHVILKVKSQDGDEVLFKNKKSAPLKKLMYVYCDRRGLKLDAFAFIFNGARIGGLETPDELDMEDGDVIDACRAMSGGLRANQRQWSYMLFDHNGL | not soluble |
| MKDVVDKCSTKGCAIDIGTVIDNDNCTSKFSRFFATREEAESFMTKLKELAAAASSADEGASVAYKIKDLEGQVELDAAFTFSCQAEMIIFELSLRSLALEHHHHHH | not soluble |
| GGSGRPEIWIAQELRRIGDEFNAYYARRV | soluble |
| MKISIVIVTYNRIPALCELLESISRQTLMPYEIIIVNDAGESVVPVKALYPELPIAVINLEKNSGHVAARNAGVKEASGDCIMLCDDDDFFTPGHIEKMAKEIETADFVHSDAEIVSFEEKNGTRYPVSRKLFAYTADYEDMRVFSTYVPSGSMYRRFLHDEIGYFDADVHNYWDWDFYLRAAKDYRVKRVPCASVIYAFSDAGDNQSADLGAKRKQYLDRLSEKHGLGELPTKNFAVLLEEPEMKRREAKSEMVWDGEPVYSRLHRSLEHHHHHH | not soluble |
